Results reported in patent US20240084023A1 (NGM BIOPHARMACEUTICALS, published 2024).
Numbering of substitutions follows the chain as printed.

Assays:
Experiment in all cases: flow cytometry on transfected 293XP cells
[1] = target: T1, GCGR extracellular domain alanine mutant L32A (human, UniProt P47871 26-136, limits assumed)
T1 construct: expressed in 293XP cells
T1 chain: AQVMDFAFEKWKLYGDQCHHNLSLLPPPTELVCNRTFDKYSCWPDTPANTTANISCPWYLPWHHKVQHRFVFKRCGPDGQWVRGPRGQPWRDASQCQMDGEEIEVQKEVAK
Description: (§1) To assist in gathering information on the GCGR epitope that the 6B5 binning group bound to, “alanine scanning mutagenesis” was undertaken. These alanine scanning mutagenesis platform is a technique used for mapping both linear and conformational antigen epitopes by evaluating the effects of point mutations across a target protein. Single residues in a target protein are replaced by alanine one at a time to construct a mutant library. Each variant is assayed for its ability to bind to an antibody of interest. […] Amino acids across the extracellular domain of GCGR were mutated to alanine and the anti-GCGR antibody Hz6B5 was tested for binding to the alanine mutants.
(§2) The wild-type GCGR extracellular domain and the alanine mutants were each transfected into 293XP cells and incubated for 24 hours. Antibody Hz6B5 was incubated with the transfected cells for 30 minutes at 4° C. After washing with PBS/1% BSA/0.1% azide, the cells were incubated with a labeled anti-mouse Fc antibody (Jackson Immunoresearch) for 30 minutes at 4° C. After washing with PBS/1% BSA/0.1% azide, the cells were analyzed using a flow cytometer BD (FACSCalibur instrument) and cytometric analytical software (FlowJo). A serum sample from a mouse immunized with human GCGR was used as positive control to confirm expression of the alanine mutants.

[2] = target: T2, GCGR extracellular domain alanine mutant F33A (human, UniProt P47871 26-136, limits assumed)
T2 construct: expressed in 293XP cells
T2 chain: T1 chain with A7L, F8A
Description: as §1, §2

[3] = target: T3, GCGR extracellular domain alanine mutant W36A (human, UniProt P47871 26-136, limits assumed)
T3 construct: expressed in 293XP cells
T3 chain: T1 chain with A7L, W11A
Description: as §1, §2

[4] = target: T4, GCGR extracellular domain alanine mutant L38A (human, UniProt P47871 26-136, limits assumed)
T4 construct: expressed in 293XP cells
T4 chain: T1 chain with A7L, L13A
Description: as §1, §2

[5] = target: T5, GCGR extracellular domain alanine mutant Y39A (human, UniProt P47871 26-136, limits assumed)
T5 construct: expressed in 293XP cells
T5 chain: T1 chain with A7L, Y14A
Description: as §1, §2

[6] = target: T6, GCGR extracellular domain alanine mutant D41A (human, UniProt P47871 26-136, limits assumed)
T6 construct: expressed in 293XP cells
T6 chain: T1 chain with A7L, D16A
Description: as §1, §2

[7] = target: T7, GCGR extracellular domain alanine mutant H44A (human, UniProt P47871 26-136, limits assumed)
T7 construct: expressed in 293XP cells
T7 chain: T1 chain with A7L, H19A
Description: as §1, §2

[8] = target: T8, GCGR extracellular domain alanine mutant H45A (human, UniProt P47871 26-136, limits assumed)
T8 construct: expressed in 293XP cells
T8 chain: T1 chain with A7L, H20A
Description: as §1, §2

[9] = target: T9, GCGR extracellular domain alanine mutant K64A (human, UniProt P47871 26-136, limits assumed)
T9 construct: expressed in 293XP cells
T9 chain: T1 chain with A7L, K39A
Description: as §1, §2

[10] = target: T10, GCGR extracellular domain alanine mutant W83A (human, UniProt P47871 26-136, limits assumed)
T10 construct: expressed in 293XP cells
T10 chain: T1 chain with A7L, W58A
Description: as §1, §2

[11] = target: T11, GCGR extracellular domain alanine mutant L85A (human, UniProt P47871 26-136, limits assumed)
T11 construct: expressed in 293XP cells
T11 chain: T1 chain with A7L, L60A
Description: as §1, §2

[12] = target: T12, GCGR extracellular domain alanine mutant W87A (human, UniProt P47871 26-136, limits assumed)
T12 construct: expressed in 293XP cells
T12 chain: T1 chain with A7L, W62A
Description: as §1, §2

[13] = target: T13, GCGR extracellular domain alanine mutant R94A (human, UniProt P47871 26-136, limits assumed)
T13 construct: expressed in 293XP cells
T13 chain: T1 chain with A7L, R69A
Description: as §1, §2

B1: anti-GCGR antibody Hz6B5 (antibody, V domains shown)
VH: QVQLVQSGAEVKKPGSSVKVSCKASGFTFTNHWLGWVRQAPGQGLEWIGDIYPGGYYINYNEKFKGRVTITADESTSTAYMELSSLRSEDTAVYYCARHTNYGSDYWGQGTTVTVSS
VL: DVVMTQSPLSLPVTLGQPASISCRSSQSIVDSYGNTFLEWYQQRPGQSPRLLIYKVSNRLSGVPDRFSGSGSGTDFTLKISRVEAEDVGVYYCFQGSHVPWTFGQGTKLEIK
notes: Humanized 6B5
% positive cells [1]: 76.9% | % positive cells [2]: 71.8% | % positive cells [3]: 70.9% | % positive cells [4]: 3.3% | % positive cells [5]: 65.8% | % positive cells [6]: 84.3% | % positive cells [7]: 82.2% | % positive cells [8]: 81.3% | % positive cells [9]: 87.6% | % positive cells [10]: 72.6% | % positive cells [11]: 11.7% | % positive cells [12]: 74.7% | % positive cells [13]: 0%
